Measurements published in patent US6534300.

Legend:
porcine uteroferrin = porcine uteroferrin (UniProt P09889)
Chain of UniProt P09889 (P09889 22-340): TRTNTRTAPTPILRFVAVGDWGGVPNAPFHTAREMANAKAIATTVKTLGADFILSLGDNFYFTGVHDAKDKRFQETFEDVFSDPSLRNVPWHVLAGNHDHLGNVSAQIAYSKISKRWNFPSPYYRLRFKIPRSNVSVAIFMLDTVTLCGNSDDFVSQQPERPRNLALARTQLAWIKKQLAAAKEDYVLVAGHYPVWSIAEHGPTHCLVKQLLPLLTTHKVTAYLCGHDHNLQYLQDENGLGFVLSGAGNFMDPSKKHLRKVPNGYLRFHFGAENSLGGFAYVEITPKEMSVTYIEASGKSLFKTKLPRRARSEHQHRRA

## bovine UDP-N-acetylglucosamine: lysosomal enzyme N-Acetylglucosamine-1-phosphotransferase
Porcine uteroferrin
  Km as acceptor for transfer of GlcNAc-1-P: Kms below 20 µM
Cathepsin D
  Km as acceptor for transfer of GlcNAc-1-P: Kms below 20 µM
RNAse B
  Km as acceptor for transfer of GlcNAc-1-P: the Km was not reached at the solubility limit of the protein (at 600 µM)
